Test [1] addresses T1, human PYY (Phoenix) (human, C-terminal amide (-NH2)).
T1 construct: 36-residue whole peptide; also called hPYY
As to the kind of experiment: BLI (Octet RED96), biotinylated MAb on SA sensors, peptide in solution. As to the method:
(§1) Affinity of MAb to peptides NPY, mPYY, hPYY, mPP and hPP were measured using an OCTET RED96 system with Octet SA sensors (ForteBio). Briefly, black 96-well plates were prepared with columns containing 200 μL/well of all reagents required for determination of affinity. In general, Octet SA sensors were first placed in wells containing Octet running buffer for 60 seconds to establish a baseline. Sensors were then transferred to wells containing 50 μg/mL biotinylated 5E12-B7 for 480 seconds to load the SA coated tips. Sensors were then regenerated by 3×5 second incubations in Regeneration Buffer (10 mM Glycine, pH 2) followed each time by a 5 second incubation in Octet running buffer. Sensors were then placed in fresh running buffer for 60 seconds to establish a baseline. Association was then measured by incubation the sensors for 10 min in 8 wells containing a serial dilution of peptide (0, 0.33 to 243 nM for NPY and PYY peptides, 0, 9 to 6560 nM for PP peptides). The sensors were then transferred to wells containing Octet running buffer for 15 min to measure dissociation of the peptides. The regeneration step was repeated before measurement of association/dissociation with a different peptide. All peptide measurements were performed in duplicate. The kd, kₐ and KD were determined for each peptide using the accompanying Octet software (Bioforte).
(§2) Affinity parameters of MAb 5E12-B7 were measured against peptides NPY, mPYY, hPYY, mPP and hPP using an Octet Red system (ForteBio). Streptavadin sensors were loaded with biotinylated MAb 5E12-B7. Association and dissociation rates were measured by incubation of the sensors in wells containing serial dilutions of the peptides, followed by incubation in assay buffer.
(BLI is a label-free optical method that tracks binding on a fibre tip over time.)

Test [2] has as its target T2, NPY (mouse NPY, Phoenix) (mouse, C-terminal amide (-NH2)).
T2 construct: 36-residue whole peptide bought from Phoenix Peptides; also called mNPY; neuropeptide Y
The test is described as above. As for the experimental part:
as §1, §2

The target of test [3] is T3, Peptide 3p19 (NPY C terminus with similar a.a. substitutions).
T3 construct: Poly-alanine 17-mer ending QRW-amide
T3 peptide: AAAAAAAAAAAAAAQRW-NH2
Nature of the test: SPR (Biacore), FIGS. 11A and 11B. As for the experimental part: (§3) Epitope mapping and determination of the affinity of MAb 5E12-B7 was also performed using a Biacore 2000 unit (GE Healthcare). Briefly, purified MAb 5E12-B7 was biotinylated as described above, except that the biotinylation reaction was performed at a 20:1 molar ratio of biotin:Ig. An SA-Chip (GE Healthcare) was docked into the Biacore 2000 unit and HBS-EP buffer (GE) was allowed to run over all 4 flow channels at 40 μL/min until signal had stabilized. The flow path was then switched to channel 4 only and HBS-EP containing 60 μg/mL biotinylated antibody was injected at 40 μL/min for 5 min to couple MAb 5E12-B7 to the chip via biotin-streptavidin binding. HBS-EP buffer was then run over channel 4 at 40 μL/min for over 30 min to remove all uncoupled Ig from the Biacore system then the flow path was changed to pass through all 4 flow channels. Association and dissociation of the peptides in Table 3 was measured using the Biacore Application Wizard. In each case, a baseline was established by passing HBS-EP over all 4 channels at 40 μL/min for 1 min before association was measure by injection of peptide (diluted to 1, 10, 100 or 1000 nM in HBS-EP) at 40 μL/min for 5 min. Dissociation was measured by allowing HBS-EP to pass over all 4 channels at 40 μL/min for 30 min. The kd, kₐ and KD were determined for each peptide by curve fitting using the BIAevalutation software.
(In general: Surface plasmon resonance follows binding to a sensor surface in real time, without labels.)

The target in test [4] is T4, Peptide 3p7 (Brain Neuropeptide I).
T4 peptide: AGEGLSSPFWSLAAPQRF-NH2
As to the kind of experiment: SPR (Biacore), FIG. 12. As for the experimental part: as §3

The target in test [5] is T5, Peptide 3p8 (Poly alanine with last 4 residues NPFF).
T5 peptide: AAAAAAAAAAAAAPQRF-NH2
As to the kind of experiment: SPR (Biacore), FIG. 12. As for the experimental part:
as §3

The target in test [6] is T6, Peptide 3p6 (ala-NPFF).
T6 construct: Last 8 residues of NPFF on a poly-alanine helix
T6 peptide: AAAAAAAAAFLFQPQRF-NH2
Nature of the test: SPR (Biacore), FIG. 12. As for the experimental part: as §3

Test [7] has as its target T7, Peptide 1p18 (NPY last 17 residues Alanine Scan) (C-terminal amide (-NH2)).
T7 construct: NPY 25-mer with alanine at NPY residue 36
Nature of the test: indirect ELISA, peptide coated at 20 ug/mL, MAb at 1 ug/mL. As to the method: (§4) ELISA was used to map the reactivity of purified MAb 5E12-B7 against the peptides described in Table 3. Briefly, ELISA microwell plates (96-well Maxisorp, Nunc) were coated overnight at 4° C. with 50 μL of mapping peptides (Table 3) diluted to 20 μg/mL in carbonate coating buffer (CCB). Between each of the following steps, microwell plates were washed three times with PBST using a plate washer (BioTek). Coated wells were blocked with 200 μL PBS containing 5% w/v skim milk (Diploma). Blocked wells were incubated for 1 hr with 50 μL of MAb 5E12-B7 diluted to 1 μg/mL in skim milk/PBST. Wells were then incubated for 1 hr with 50 μL Peroxidase-conjugated AffiniPure F(ab)2 fragment goat anti-mouse secondary antibody (Jackson) diluted 1:5000 in skim milk/PBST. Ig binding was detected by incubation of wells with 50 μL TMB substrate (Becton Dickinson). Substrate reaction was stopped after 15 min with 50 μL 1M H₂SO₄ and O.D. 450 nm was measured.
In general terms: ELISA stands for enzyme-linked immunosorbent assay.

For test [8], the target named is T8, Peptide 1p17 (NPY last 17 residues Alanine Scan) (C-terminal amide (-NH2)).
T8 construct: NPY 25-mer with alanine at NPY residue 35
The test is described as above. As to the method:
as §4

The target of test [9] is T9, Peptide 2p15 (Poly Ala with shrinking NPY C term).
T9 construct: 15 alanines followed by RY-amide
T9 peptide: AAAAAAAAAAAAAAARY-NH2
Described as above. As for the experimental part: as §4

The target in test [10] is T10, Peptide 1p16 (NPY last 17 residues Alanine Scan) (C-terminal amide (-NH2)).
T10 construct: NPY 25-mer with alanine at NPY residue 34
The test is described as above. As to the method:
as §4

Test [11] deals with T11, Peptide 2p17 (HBY with polyAlanine C terminus) (C-terminal amide (-NH2)).
T11 construct: HBY with four alanine residues added to the C-terminus
T11 peptide: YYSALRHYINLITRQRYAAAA
The description is as above. As to the method: as §4

Test [12] addresses T12, Peptide 2p16 (Poly Ala with shrinking NPY C term).
T12 construct: 16 alanines followed by Y-amide
T12 peptide: AAAAAAAAAAAAAAAAY-NH2
Described as above. As for the experimental part:
as §4

The record followed here is patent publication US20150307599A1 (GARVAN INSTITUTE OF MEDICAL RESEARCH, published 2015).

Where no end group is shown, it is not given here.

T1 sequence (peptide, as listed by the source): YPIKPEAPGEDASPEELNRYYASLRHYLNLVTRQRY

B1: MAb 5E12-B7 (antibody, V domains shown)
VH: QVQLQHPGTEVVKPGASVKLSCKASGYTFTNYWMHWVKQRPGQGLEWIGNIDPSNGGTNYNEKFKSKATLTVDKSSSTAYMQLSSLTSEDSAVYYCASFAYWGQGTLVTVSA
VL: DIQMTQSPASLSASVGETVTITCRASGNIHNYLAWYQQKQGKSPQLLVYNAKTLADGVPSRFSGSGSGTQYSLKISSLRPEDFGSYYCQHFWSPPFTFGSGTKLEIK
notes: Biotinylated for the Biacore and Octet assays; also called PYY/NPY antibody (5E12); anti-NPY/PYY antibody 5E12
As usually defined, the Kd is the concentration at which binding is half-saturated. The low end stands for tighter binding, the high end for weaker binding. The koff is the rate constant with which the complex falls apart. Read a low koff as slow dissociation. The term kon denotes the second-order rate constant of association. A lower kon goes with slower complex formation. Consider B1, for which the figures for the Kd in test [1] and in test [2] were 2.17 nM and 4.7 nM, respectively. In addition, the figures for the koff in test [1] and in [2] were 0.000385 s⁻¹ and 0.000429 s⁻¹, respectively. The kon in test [1] was found to be 179000 M⁻¹ s⁻¹; in test [2] it was 92600 M⁻¹ s⁻¹. Besides, the binding result in [3], in [4], in test [5], in test [6], in test [7] and in test [8] was “no binding” each time. Besides, the binding result in test [9], in [10], in [11] and in [12] was “no binding” each time.
